Results on one molecule are retold here after paper PMC5736413 (Journal of immunology (Baltimore, Md. : 1950), 2017).

Usually Kd stands for the free concentration of one partner at which half of the binding sites on the other are occupied at equilibrium, for simple one-to-one binding.

This assay addresses recombinant mouse Factor H (mouse, UniProt P06909 19-1234). As to the kind of experiment: SPR. (In general: SPR reads the build-up and loss of mass on a sensor chip optically.)

recombinant mouse Factor H, sequence (P06909 19-1234): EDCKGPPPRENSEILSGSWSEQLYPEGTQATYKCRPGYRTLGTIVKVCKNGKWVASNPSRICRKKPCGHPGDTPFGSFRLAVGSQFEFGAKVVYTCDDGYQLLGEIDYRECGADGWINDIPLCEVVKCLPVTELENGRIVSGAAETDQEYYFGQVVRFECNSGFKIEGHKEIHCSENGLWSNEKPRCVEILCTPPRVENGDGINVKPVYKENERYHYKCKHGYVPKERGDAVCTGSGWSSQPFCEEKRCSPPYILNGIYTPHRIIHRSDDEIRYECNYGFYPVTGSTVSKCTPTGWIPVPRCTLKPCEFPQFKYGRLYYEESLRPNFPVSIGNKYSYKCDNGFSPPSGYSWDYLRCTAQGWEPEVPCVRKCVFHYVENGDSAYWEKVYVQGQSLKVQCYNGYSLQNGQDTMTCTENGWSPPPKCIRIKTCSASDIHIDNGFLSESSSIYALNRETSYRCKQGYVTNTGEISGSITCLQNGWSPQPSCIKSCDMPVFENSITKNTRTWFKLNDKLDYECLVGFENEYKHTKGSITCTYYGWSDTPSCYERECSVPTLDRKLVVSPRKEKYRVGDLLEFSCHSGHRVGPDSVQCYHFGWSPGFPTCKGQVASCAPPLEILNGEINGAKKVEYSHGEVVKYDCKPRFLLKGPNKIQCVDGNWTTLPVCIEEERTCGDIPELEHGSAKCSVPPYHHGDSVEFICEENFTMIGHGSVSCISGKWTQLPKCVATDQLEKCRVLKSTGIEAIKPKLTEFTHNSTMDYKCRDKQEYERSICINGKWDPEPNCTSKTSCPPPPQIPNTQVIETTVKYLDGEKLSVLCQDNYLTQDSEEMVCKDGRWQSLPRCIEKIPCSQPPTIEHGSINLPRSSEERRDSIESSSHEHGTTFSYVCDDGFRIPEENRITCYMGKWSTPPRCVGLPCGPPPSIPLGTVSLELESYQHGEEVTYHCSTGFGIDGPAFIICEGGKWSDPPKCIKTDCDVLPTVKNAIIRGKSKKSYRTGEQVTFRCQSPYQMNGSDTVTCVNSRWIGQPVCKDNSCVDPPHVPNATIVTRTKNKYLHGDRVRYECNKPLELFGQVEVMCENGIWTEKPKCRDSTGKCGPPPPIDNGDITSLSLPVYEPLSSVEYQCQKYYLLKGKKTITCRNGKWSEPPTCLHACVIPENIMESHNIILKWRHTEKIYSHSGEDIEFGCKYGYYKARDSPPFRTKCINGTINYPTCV

B1: recombinant mouse C3d (C1010A) (domain or fragment)
chain: not shown
B1: the Kd was determined as 3.85 µM.
